Numbering of substitutions follows the chain as printed.
Experiments:
Human BTC [1] = target: T1, Human BTC (human, UniProt P35070 32-111); experiment: MSD-based inhibition of BTC binding to ErbB1
T1 construct: Soluble human BTC of the Biacore, ELISA, MSD and cell assays; also called human betacellulin; soluble human BTC
T1 sequence: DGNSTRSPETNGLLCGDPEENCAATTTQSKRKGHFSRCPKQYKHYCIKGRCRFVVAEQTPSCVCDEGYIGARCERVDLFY

Human BTC [2] = target: T1, Human BTC; experiment: cell-based or functional assay
[3] = target: T2, membrane-bound human BTC on 293F-hBTC cells (human, UniProt P35070 32-111); experiment: cell-based or functional assay
T2 sequence: T1 sequence

Human BTC [4] = target: T1, Human BTC; experiment: SPR (Biacore/ProteOn)
Rat BTC = target: T3, Rat BTC (rat, UniProt Q9JJM4 32-111); experiment: SPR (Biacore/ProteOn)
T3 sequence: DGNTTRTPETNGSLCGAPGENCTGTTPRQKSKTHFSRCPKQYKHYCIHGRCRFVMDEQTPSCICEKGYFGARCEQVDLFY

Mouse BTC = target: T4, Mouse BTC (mouse, UniProt Q05928 32-111, limits assumed); experiment: SPR (Biacore/ProteOn)
T4 sequence (looked up): T3 sequence with S31V, M55V, Q75R

Cyno BTC = target: T5, Cyno BTC (cynomolgus, UniProt A0A2K5X5E5 32-111); experiment: SPR (Biacore/ProteOn)
T5 construct: also called cynomolgus BTC
T5 sequence: T1 sequence with E19D, A56T

Rabbit BTC = target: T6, Rabbit BTC (rabbit, UniProt G1SJ89 32-111); experiment: SPR (Biacore/ProteOn)
T6 sequence: T1 sequence with D1S, L14S, D17Y, E19G, A23T, T27V, S29P, V63I, I69T

Human BTC-avitag-biotin [5] = target: T7, Human BTC-avitag-biotin (human, UniProt P35070 32-111, biotin on the avitag); experiment: flow cytometry, BTC-ErbB4 Cell Binding Inhibition: antibody pre-incubated with 15 nM human BTC-avitag-biotin, HKB11 cells over-expressing human ErbB4; y axis Percent Inhibition
T7 construct: also called biotin-BTC; soluble human BTC-avitag-biotin
T7 sequence: T1 sequence
Experimental: (§1) HKB11 over-expressing either ErbB1 or ErbB4 cells were plated 1×10⁵ cells/well. Cells were washed once with FACS buffer by spun down at 1200 rpm for 5 minutes and supernatant removed. Next, the Fab sample dilutions and BTC were prepared in FACS buffer. Human BTC-avitag-biotin was diluted to a fixed concentration of 15 nM. The test Fab samples were prepared at a starting concentration of 40 nM and titrated for 9 points at a serial dilution of 1:2. Both biotin-BTC and the test Fab samples are incubated for 30 minutes at room temperature. The pre-incubated samples were then added to the cell plate at 100 μl per well in duplicate and incubated for 1 hour on ice. The plate was then washed once in FACS buffer and spun down at 1200 rpm for 5 minutes and supernatant removed. […]
(§2) Measurements were performed on Attune Flow Cytometry machine. Data were analysed using the Flow Jo software. The live cell populations analysed were gated in forward and side scattering (FSC-A/SSC-A dot plot). The interval gate was established on the control histogram, which was obtained with sample incubated in streptavidin-Alexa Fluor488 only, and subsequently, determined percent of positive binding events of cells carrying membrane-bound receptor ErbB1 or ErbB4 and biotin-BTC. The median of fluorescence intensity (MFI) value was also derived for the live cell population. […]

Human BTC [6] = target: T1, Human BTC; experiment: SPR Biacore T200, anti-Fab capture, antigen as analyte
Human BTC [7] = target: T1, Human BTC; experiment: cell-based inhibition of BTC binding to ErbB4
Human BTC [8] = target: T1, Human BTC; experiment: inhibition of BTC binding to ErbB4; y axis MSD units, x axis Antibody concentration (pM); blocked partner ErbB4
[9] = target: T2, membrane-bound human BTC on 293F-hBTC …; experiment: flow cytometry, 293F cells with BTC against 293F
Human BTC-avitag-biotin [10] = target: T7, Human BTC-avitag-biotin; experiment: flow cytometry, BTC-ErbB1 Cell Binding Inhibition: antibody pre-incubated with 15 nM human BTC-avitag-biotin, HKB11 cells over-expressing human ErbB1; y axis Percent Inhibition
Experimental: as §1, §2

Human BTC [11] = target: T1, Human BTC; experiment: inhibition of BTC binding to ErbB1; y axis MSD units, x axis Fab (pM); blocked partner ErbB1

B1: NVS1 (Fab, V domains shown)
VH: QVQLVQSGAEVKKPGSSVKVSCKASGGTFSSYAISWVRQAPGQGLEWMGGIVPWMGEAVYAQKFQGRVTITADESTSTAYMELSSLRSEDTAVYYCARSSSTYGIHAFDYWGQGTLVTVSS
VL: DIQMTQSPSSLSASVGDRVTITCRASQSISNFLNWYQQKPGKAPKLLIYAASNLQSGVPSRFSGSGSGTDFTLTISSLQPEDFATYYCQQYDDFPMTFGQGTKVEIKR
notes: also called Fab NVS1; NVS1 Fab
With B1 the “MSD-based binding inhibition BTC/ErbB1” value (Human BTC [1]) was > 90%, the “A431 pERK (IC50 in nM)” value (Human BTC [2]) was 0.25 nM and the “ADR/Res pErbB3 (IC50 in nM)” value (Human BTC [2]) was 5.7 nM. For the same binder, the inhibition (Human BTC [2]) was 99.7%, the “Neutralization of juxtacrine signaling” value [3] was 89% and the Kd (Human BTC [4]) was 6 pM. It also gave a Kd (Rat BTC) of 7 pM, a Kd (Mouse BTC) of 4 pM and a Kd (Cyno BTC) of 8 pM. It also gave a Kd (Rabbit BTC) of 4 pM, an IC50 (Human BTC-avitag-biotin [5]) of 7400 pM and a Kd (Human BTC [6]) of 1.7 pM. For the same binder, the “Cell-based binding inhibition BTC/ErbB4” value (Human BTC [7]) was > 90%, the IC50 (Human BTC [8]) was 591 pM and the “Binding to membrane-anchored BTC (median, X above 293F)” value [9] was > 10 X above 293F. For the same binder, the IC50 (Human BTC-avitag-biotin [10]) was 2500 pM and the IC50 (Human BTC [11]) was 301 pM.

— patent US20220025032A1 (Novartis, published 2022)
